We go through three molecules from US20240084042A1 (Genentech, published 2024).

Experiment [1] has as its target T1, human KLK7 (SEQ ID NO: 4 plus a C-terminal FLAG tag) (human, UniProt P49862 30-253). The experiment can be described thus: cell-based or functional assay.
The target of experiment [2] is T2, human KLK5 (human, UniProt Q9Y337 67-293).
T2 sequence: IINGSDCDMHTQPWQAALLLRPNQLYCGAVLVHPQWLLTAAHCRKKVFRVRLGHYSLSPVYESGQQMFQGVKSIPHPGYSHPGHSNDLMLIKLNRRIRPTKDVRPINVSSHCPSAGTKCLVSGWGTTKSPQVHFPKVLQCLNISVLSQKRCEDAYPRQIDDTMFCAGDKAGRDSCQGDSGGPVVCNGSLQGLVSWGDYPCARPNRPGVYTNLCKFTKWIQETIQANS
In words: cell-based or functional assay.

The target of experiment [3] is T3, cynomolgus monkey KLK5 (cynomolgus monkey, UniProt Q9Y337 67-293 (human entry)).
T3 chain: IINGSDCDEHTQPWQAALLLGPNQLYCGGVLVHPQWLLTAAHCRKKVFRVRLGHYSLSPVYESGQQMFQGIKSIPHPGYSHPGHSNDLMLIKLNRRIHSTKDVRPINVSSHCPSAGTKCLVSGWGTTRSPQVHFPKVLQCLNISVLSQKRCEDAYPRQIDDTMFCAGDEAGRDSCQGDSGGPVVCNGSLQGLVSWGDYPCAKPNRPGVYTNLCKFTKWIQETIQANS
In words: cell-based or functional assay.

For experiment [4], the target named is T4, cyano KLK7 (SEQ ID NO: 6 plus a C-terminal FLAG tag) (cynomolgus monkey, UniProt P49862 30-253 (human entry)). In words: cell-based or functional assay.
T4 sequence (P49862 other isoform, or with tags, fused parts or gaps): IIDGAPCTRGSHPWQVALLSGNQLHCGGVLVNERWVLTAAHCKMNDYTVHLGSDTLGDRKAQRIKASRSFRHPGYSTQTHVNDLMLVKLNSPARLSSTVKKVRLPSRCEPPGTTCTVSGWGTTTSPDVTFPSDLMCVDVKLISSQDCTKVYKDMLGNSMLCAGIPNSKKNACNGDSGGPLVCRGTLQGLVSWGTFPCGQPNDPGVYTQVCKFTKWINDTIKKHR
Experiment [5] concerns the target T3, cynomolgus monkey KLK5. The experiment can be described thus: kinetics of bispecific antibody, method not restated (SPR implied).
Experiment [6] concerns the target T2, human KLK5. The experiment is described as above.
Experiment [7] deals with T5, human KLK7 (human, UniProt P49862 30-253).
T5 construct: Antigen injected in SPR; also called hu KLK7; huKLK7
T5 sequence (P49862 30-253): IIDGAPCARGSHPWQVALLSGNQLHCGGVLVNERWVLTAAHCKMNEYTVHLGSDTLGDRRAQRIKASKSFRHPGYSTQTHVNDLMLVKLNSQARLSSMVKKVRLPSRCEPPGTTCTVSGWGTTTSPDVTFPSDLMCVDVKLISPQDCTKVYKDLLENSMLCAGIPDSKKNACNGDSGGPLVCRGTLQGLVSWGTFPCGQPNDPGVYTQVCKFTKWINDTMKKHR
Described as above.

The target in experiment [8] is T6, cynomolgus monkey KLK7 (cynomolgus monkey, UniProt P49862 30-253 (human entry)).
T6 construct: Antigen injected in SPR; also called Cy KLK7; cyno KLK7
T6 sequence (P49862 other isoform, or with tags, fused parts or gaps): as the sequence (P49862 other isoform, or with tags, fused parts or gaps) above
Described as above.

Experiment [9] concerns the target T1, human KLK7 (SEQ ID NO: 4 plus a …). The experiment can be described thus: cell-based or functional assay. The source holds these as a separate data set.
The target in experiment [10] is T4, cyano KLK7 (SEQ ID NO: 6 plus a …). The experiment can be described thus: cell-based or functional assay. This is another data set of the same source.
Experiment [11] has as its target T5, human KLK7. The experiment can be described thus: SPR BIAcore T200, antibody on protein A chip, 25 C. As to the method: (§1) The binding affinity of the antibodies was determined by BIAcore™ T200 machine. Rabbit antibodies were recombinantly expressed. For kinetics measurements, antibodies were captured on research grade protein A chip (GE Healthcare, USA) to achieve approximately 300 RU. Ten-fold serial dilutions of human and cyano KLK7 were injected in HBS-P buffer at 25° C. with a flow rate of 30 μL/min. Association rates (ka) and dissociation rates (kd) were calculated using a 1:1 Langmuir binding model (BIAcore™ T200 Evaluation Software version 2.0). The equilibrium dissociation constant (KD) was calculated as the ratio kd/ka.
Background: Surface plasmon resonance follows binding to a sensor surface in real time, without labels.

Experiment [12] deals with T6, cynomolgus monkey KLK7. The experiment can be described thus: SPR BIAcore T200, antibody on protein A chip, 25 C. As to the method: as §1
For experiment [13], the target named is T2, human KLK5. The experiment can be described thus: SPR (BIAcore T200), as for Table 1.
Another experiment concerns the target huKLK4 (human, UniProt Q9Y5K2 31-254, limits assumed). In words: SPR (BIAcore T200), as for Table 1.
Another experiment addresses T7, huKLK11 (human, UniProt Q9UBX7 54-282, limits assumed).
T7 sequence (looked up): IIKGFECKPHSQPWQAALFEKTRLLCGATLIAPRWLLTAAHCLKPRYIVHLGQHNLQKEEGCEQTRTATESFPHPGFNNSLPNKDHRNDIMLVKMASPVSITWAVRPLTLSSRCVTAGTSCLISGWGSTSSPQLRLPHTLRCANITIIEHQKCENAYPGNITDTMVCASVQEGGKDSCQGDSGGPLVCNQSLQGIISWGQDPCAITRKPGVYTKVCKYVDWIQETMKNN
The experiment can be described thus: SPR (BIAcore T200), as for Table 1.

The target in a further experiment is huKLK1 (human, UniProt P06870 25-262, limits assumed). In words: SPR (BIAcore T200), as for Table 1.
Sequence of huKLK1 (P06870 25-262 limits assumed): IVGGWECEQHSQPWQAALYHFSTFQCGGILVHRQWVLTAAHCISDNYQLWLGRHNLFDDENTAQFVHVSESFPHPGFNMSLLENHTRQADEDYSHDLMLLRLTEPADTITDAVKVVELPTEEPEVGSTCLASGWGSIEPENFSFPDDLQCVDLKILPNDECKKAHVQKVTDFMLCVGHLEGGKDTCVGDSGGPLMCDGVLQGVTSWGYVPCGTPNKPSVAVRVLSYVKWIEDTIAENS

T1 sequence (P49862 30-253): as the sequence (P49862 30-253) above
Sequence of huKLK4 (Q9Y5K2 31-254 limits assumed): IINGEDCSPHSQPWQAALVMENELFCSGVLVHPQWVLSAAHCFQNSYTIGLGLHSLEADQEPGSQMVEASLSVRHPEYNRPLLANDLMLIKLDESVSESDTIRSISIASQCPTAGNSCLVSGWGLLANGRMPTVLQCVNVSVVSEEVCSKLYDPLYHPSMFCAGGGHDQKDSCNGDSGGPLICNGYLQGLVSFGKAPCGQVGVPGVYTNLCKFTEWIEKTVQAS

B1: hu.10C5VY.hu14H11c.L2H11 WT (bispecific antibody, human IgG1, kappa, N297G)
heavy 1: not shown
light 1: DIQMTQSPSSLSASVGDRVTITCLASEDIASSVSWYQKKPGKAPKLLIYGASNLESGVPSRFSGSGSGTDYTLTISSLQPEDFATYYCLGGYSYSSTGTAFGGGTKVEIKRTVAAPSVFIFPPSDEQLKSGTASVECLLNNFYPREAKVQWKVDNALQSGNSQESVTEQDSKDSTYSLSSTLTLSKADYEKHKVYACEVTHQGLSSPVTKSFNRGEC
heavy 2: EVQLVESGGGLVQPGGSLRLSCAASGFSLSSYGVTWVRKAPGKGLEWIGYITSVYGVSYYASWAKSRSTISRDTSKNTVYLQMGSLRAEDMAVYYCARENPDYGYAYDAWGQGTTVTVSSASTKGPSVFPLAPSSKSTSGGTAALGCLVKDYFPEPVTVSWNSGALTSGVHTFPAVLQSSGLYSLESVVTVPSSSLGTQTYICNVNHKPSNTKVDKKVEPKSCDKTHTCPPCPAPELLGGPSVFLFPPKPKDTLMISRTPEVTCVVVDVSHEDPEVKFNWYVDGVEVHNAKTKPREEQYGSTYRVVSVLTVLHQDWLNGKEYKCKVSNKALPAPIEKTISKAKGQPREPQVYTLPPSREEMTKNQVSLSCAVKGFYPSDIAVEWESNGQPENNYKTTPPVLDSDGSFFLVSKLTVDKSRWQQGNVFSCSVMHEALHNHYTQKSLSLSPGK
light 2: AIRMTQSPSSFSASTGDRVTITCQASESISNELSWYQEKPGKAPKLLIYYASTLASGVPSRFSGSGSGTDFTLTISSLQPEDFATYYCAQGYGSSGVENVFGGGTKVEIKRTVAAPSVFIFPPSDEQLKSGTASVKCLLNNFYPREAKVQWKVDNALQSGNSQESVTEQDSKDSTYSLSSTLTLSKADYEKHKVYACEVTHQGLSSPVTKSFNRGEC
notes: hIgG1 N297G knob-in-hole bispecific with Q39E/Q38K, Q39K/Q38E, S183K/V133E and S183E/V133K pairing mutations; also called anti-KLK5/KLK7 bispecific antibody without M428L/N434S
In general, Kd refers to the free concentration of one partner at which half of the binding sites on the other are occupied at equilibrium, for simple one-to-one binding. Broadly, the koff is a measure of how fast the partners let go of each other. As usually defined, the kon is the rate constant with which the complex forms. Consider B1, for which the “IC50, KLK7 direct functional assay (Mca-RPKPVE-Nval-WRK(Dnp)), bivalency corrected” value in experiment [1] and in experiment [4] was 0.37 nM each time. Also, the “IC50, KLK5 direct functional assay (Boc-Val-Pro-Arg-AMC), bivalency corrected” value with human KLK5 [2] was 0.67 nM; with cynomolgus monkey KLK5 [3], 0.73 nM. Further, the Kd was 0.019 nM in the experiment with cynomolgus monkey KLK5 [5], 0.0008 nM with human KLK5 [6], < 0.001 nM in the experiment with human KLK7 [7] and 0.0023 nM in the experiment with cynomolgus monkey KLK7 [8]. The koff with cynomolgus monkey KLK5 [5] was 0.00019 s⁻¹; with human KLK5 [6], 1.5e-05 s⁻¹; with human KLK7 [7] it was < 1e-06 s⁻¹; in the experiment with cynomolgus monkey KLK7 [8], 9e-05 s⁻¹. Further, the kon amounted to 1e+07 M⁻¹ s⁻¹ with cynomolgus monkey KLK5 [5], 2.1e+07 M⁻¹ s⁻¹ with human KLK5 [6], 5.8e+07 M⁻¹ s⁻¹ with human KLK7 [7] and 4e+07 M⁻¹ s⁻¹ with cynomolgus monkey KLK7 [8].

B2: hu.10C5VY.hu14H11c.L2H11 LS (bispecific antibody, human IgG1, kappa, N297G)
heavy 1: EQQLVESGGGLIQPGGSLRLSCAASGFSFSSSYYMSWVREAPGKGLEWVSSIYAGSSGAPYYAGWAKGRFTISRDNSKNTLYLQMNSLRAEDTAVYYCAREGFAETGGYGYAAYFNLWGPGTLVTVSSASTKGPSVFPLAPSSKSTSGGTAALGCLVKDYFPEPVTVSWNSGALTSGVHTFPAVLQSSGLYSLKSVVTVPSSSLGTQTYICNVNHKPSNTKVDKKVEPKSCDKTHTCPPCPAPELLGGPSVFLFPPKPKDTLMISRTPEVTCVVVDVSHEDPEVKFNWYVDGVEVHNAKTKPREEQYGSTYRVVSVLTVLHQDWLNGKEYKCKVSNKALPAPIEKTISKAKGQPREPQVYTLPPSREEMTKNQVSLWCLVKGFYPSDIAVEWESNGQPENNYKTTPPVLDSDGSFFLYSKLTVDKSRWQQGNVFSCSVLHEALHSHYTQKSLSLSPGK
light 1: DIQMTQSPSSLSASVGDRVTITCLASEDIASSVSWYQKKPGKAPKLLIYGASNLESGVPSRFSGSGSGTDYTLTISSLQPEDFATYYCLGGYSYSSTGTAFGGGTKVEIKRTVAAPSVFIFPPSDEQLKSGTASVECLLNNFYPREAKVQWKVDNALQSGNSQESVTEQDSKDSTYSLSSTLTLSKADYEKHKVYACEVTHQGLSSPVTKSFNRGEC
heavy 2: EVQLVESGGGLVQPGGSLRLSCAASGFSLSSYGVTWVRKAPGKGLEWIGYITSVYGVSYYASWAKSRSTISRDTSKNTVYLQMGSLRAEDMAVYYCARENPDYGYAYDAWGQGTTVTVSSASTKGPSVFPLAPSSKSTSGGTAALGCLVKDYFPEPVTVSWNSGALTSGVHTFPAVLQSSGLYSLESVVTVPSSSLGTQTYICNVNHKPSNTKVDKKVEPKSCDKTHTCPPCPAPELLGGPSVFLFPPKPKDTLMISRTPEVTCVVVDVSHEDPEVKFNWYVDGVEVHNAKTKPREEQYGSTYRVVSVLTVLHQDWLNGKEYKCKVSNKALPAPIEKTISKAKGQPREPQVYTLPPSREEMTKNQVSLSCAVKGFYPSDIAVEWESNGQPENNYKTTPPVLDSDGSFFLVSKLTVDKSRWQQGNVFSCSVLHEALHSHYTQKSLSLSPGK
light 2: AIRMTQSPSSFSASTGDRVTITCQASESISNELSWYQEKPGKAPKLLIYYASTLASGVPSRFSGSGSGTDFTLTISSLQPEDFATYYCAQGYGSSGVENVFGGGTKVEIKRTVAAPSVFIFPPSDEQLKSGTASVKCLLNNFYPREAKVQWKVDNALQSGNSQESVTEQDSKDSTYSLSSTLTLSKADYEKHKVYACEVTHQGLSSPVTKSFNRGEC
notes: hIgG1 N297G knob-in-hole bispecific with M428L/N434S and the chain pairing mutations; also called anti-KLK5/KLK7 bispecific antibody with M428L/N434S (LS)
Turning to B2, the results for the “IC50, KLK7 direct functional assay (Mca-RPKPVE-Nval-WRK(Dnp)), bivalency corrected” value in experiment [1] and in experiment [4] were 0.34 nM and 0.36 nM, respectively. Further, the entries for the “IC50, KLK5 direct functional assay (Boc-Val-Pro-Arg-AMC), bivalency corrected” value with human KLK5 [2] and in the experiment with cynomolgus monkey KLK5 [3] were 0.54 nM and 0.58 nM, respectively. Further, the Kd with cynomolgus monkey KLK5 [5] stood at 0.016 nM; in the experiment with human KLK5 [6] it was 0.0015 nM; with human KLK7 [7], 0.00024 nM; with cynomolgus monkey KLK7 [8], 0.003 nM. For the same molecule, the koff came to 0.00018 s⁻¹ with cynomolgus monkey KLK5 [5], 1.97e-05 s⁻¹ with human KLK5 [6], 1.4e-05 s⁻¹ in the experiment with human KLK7 [7] and 7e-05 s⁻¹ with cynomolgus monkey KLK7 [8]. Besides, the kon with cynomolgus monkey KLK5 [5] was determined as 1.11e+07 M⁻¹ s⁻¹; in the experiment with human KLK5 [6], 1.5e+07 M⁻¹ s⁻¹; in the experiment with human KLK7 [7], 5.7e+07 M⁻¹ s⁻¹; with cynomolgus monkey KLK7 [8], 3e+07 M⁻¹ s⁻¹.

B3: 14H11 (antibody, V domains shown)
VH: QSLEESGGDLVKPGASLTLTCTASGFSFSSSYYMCWVRQAPGKGLEWIASIYAGSSGAPYYAGWAKGRFTISKTSSTAVTLQMSSLTAADTATYFCAREGFAETGGYGYAAYFNLWGPGTLVTVSS
VL: AIEMTQSPPSLSASVGETVRIRCLASEDIASSVSWYQQKPGKPPTLLIYGASNLESGVPPRFTGSGSGTDYTLTIGGVQAEDAATYYCLGGYSYSSTGTAFGAGTKVEIK
notes: Recombinant rabbit anti-KLK7 monoclonal antibody, expressed in Expi293 cells, protein A purified, bivalent; also called rb.14H11
With B3, the entries for the “IC50, KLK7 direct functional assay (Mca peptide substrate), bivalency not accounted for” value in [9] and in experiment [10] were 0.11 nM and 0.15 nM, respectively. In addition, the koff with human KLK7 [11] and with cynomolgus monkey KLK7 [12] was < 1e-06 s⁻¹ each time. Moreover, the binding result with human KLK5 [13], in the experiment with huKLK4, in the experiment with huKLK11 and in the experiment with huKLK1 was “no binding” in each case.
